Measurements from the nanobody polyreactivity screen of Harvey et al. (2022).

Assay: yeast display, Sf9 membrane polyspecificity reagent, FACS + sequencing; frameworks hold sequencing errors
Outline: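 Genes from sorted yeast were amplified by colony PCR, read by MiSeq 2 × 250 sequencing and filtered on CDR length. These cells carried a synthetic nanobody library in Saccharomyces cerevisiae BJ5465 and were sorted by FACS into low and high (top ~1%) gates on anti-HA and streptavidin fluorescence. Polyreactivity is labelled according to the gate of origin.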

| Sequence | polyreactivity (PSR sort gate) |
| --- | --- |
| QVQLVESGGGLVQAGGSLRLSCAASGRIFIYNAMGWSRQAPGIERELVARIRDRGDSTNYADSVKGRFTISRDNAKNTVYLQMNSLKPEDTAVYYCAAQPWLRYYYWGQGTQVTVSS | low polyreactivity |
| QVQLVESGGGLVQAGGSLRLSCAASGRTFVWNAMGWYRQAPGKERELVAAISSSGGSTYYADSVKGRFTISRDNAKNTVYLQMNSLKPEDTAVYYCAARRASGFDWGQGTQVTVSS | high polyreactivity |
| QVQLVESGGGLVQAGGSLRLSCAASGSTFVRNDMGLYRQAPGKERELVAAITRGGRTYYADSVKGRFTISRDNAKNTVYLQMNSLKPEDTAVYYCAAEGTGYSVGWQYGYWVQGTQVTVSS | low polyreactivity |
| QVQLVESGAGLVQAGVSLRLSCAASGSILTDSAMGWYIQAPGKERELVATISNGGSTNYADSVKGRFTISRDNAKNTVYLKMNSLKPEDTAVYYCNAEPGVPSWELDYWGQGTQVTVSS | low polyreactivity |
| QVQLVESGGGLVQAGGSLRLSCAASGRIFGGYVMGWYRQAPGKERELVAAISRRGGSTYYADSVKGRFTISRDNAKNTVYLQMNSLKPEDTAVYYCNVASFSYSYKFDYWGQGTQVTVSS | high polyreactivity |
| QVQLVESGGGLVQAGGSLRLSCAASGFIFTYYAMGWYRQAPGKERELVAVISWSGGTTYYADSVKGRFTISRDNAKNTVYLQMNSLKPEDTAVYYCAAGKVSFWLVFEYDYWGQGTQVTVSS | low polyreactivity |
| QVQLVDSGGGLVQAGGSLRLSCAASGFTFYAYGRGWNRQAPGKERELVATITWCGGNTYYADSVKGRFTISRDNAKNTVYLQMNSLKPEDTAVYYCAARLPSPIRPSRGYYDYWGQGTQVTVSS | low polyreactivity |
| QVQLVESGGGLVQAGGSLRLSCAASGSIFAYYAMGWYRQAPGKERELVAAITRGGRKYYADSVKGRFTISRDNAKNTVYLQMNILKPEYTAVYYCNARNVYFVSPNYDYWGQCTQVTVSS | high polyreactivity |
| QVQLVESGGGLVQAGGSLRLSCAASGSIFSINTMGWYRQAPGKERELVAAITRSGSGTYYADSVKGRFTISRDNAKNTVYLQMNSLKPEDTAVYYCAKPAGARLGYWGQGTQVTVSS | low polyreactivity |
| QVQLVESGGGLVQAGGSLRLSCAASGYIFFGNAMGWYRQAPGKERELVAAIRRRGTSTYYADSVKGRFTISRDNAKNTVYLQMNSLKPEDTAVYYCAADVVRSNFYGTFLYDYDYCGQGTQVTVSS | low polyreactivity |
| QVQLVESGGGLVQAGGSLRLSCAASGSTIFGNVMGWYRQAPGKERELVAVITNRGGSTYYADSVKGRFTISRDNAKNTVYLQMNSLTPEDTAVYYCNARPLYHFWYYSGEEYGYWGQGTQVSVSS | high polyreactivity |
| QVQLVESGGGLVQAGGSLRLSCAASGRTFKYYAMGWYRQAPGKERELVATITWSGTSTNYADSVKGRFTISRDNAKNTVYLQMNSLKPEDTAVYYCAARSKRRNYDYWGQGTQVTVSS | high polyreactivity |
| QVQLVESGGGLVQAGGSLRLSCAASGSIFDPYAMGWYRQAPRKERELVAAIRWSGTSTYYADSVMGRFTISRDNAKNTVYLQMNSLKPEDTAVYYCAARGSKGFSSPFGYWGQGTQLTVSS | high polyreactivity |
| QVQLVESGGGLVQAGGSLRLSCAASGSIFSQYAMGWYRQAPGKERELVAAISASGGRTYYADSVKGRFTISRDNAKNTVYLQMNSLKPEDTAVYYCNAAHGSNRYSFVNPFYYWGQGTQVTVSS | high polyreactivity |
| QVQLVESGGGLVQAGGSLRLRCAASGFIFRLYAMGWYIQAPGKERELVASITQGGSTYYADSVKGRFTISRDNAKNTVYLLMNSLKPEDTAVNDCAATYLHVYRRRFYYWGQGTQVSVSS | high polyreactivity |
| QVQLVESGGGLVQAGGSLRLSCSASGSTFEGYAMGWYRQAPGKERELVAAITSTGSTNYADSVKGRFTISRDNAKNTVYLQMNSLKPEDTAVYYCAGYPGRVYYFLGHDYWVQGTQVTVSS | low polyreactivity |
| QVQLVESGGGLVQAGGSLRLSCAASGSTFAGYVMGWYRQAPGKERELVASKSWSGGSTYYADSVKGRFTISRDNAKNTVNLQMNSLKPEETAVYYSNTRRYERTDSAYPDHDYPGYYWGQATQVTVSS | low polyreactivity |
| QVQLGESGAGLVQAGGSLRLSCAASGRTLRKYAMGLYTQAPGKERELVAAITTSGGSKYYADSVKGRFTISRDNAKNTVYLPMNSLKPEDTAVYYCAKCGYSGYHSSYDYWGQGTQVTVSS | high polyreactivity |
| QVQLVESGGGLVQAGGSLRLSCAASGIIFWYYAMGWYRQAPGKERELVAAISSGGGTNYADSVKGRFTISRDNAKNTVYLQMNSLKPEDTAVYYCNADDNPVWEYDYWGQGTQVTVSS | low polyreactivity |
| QVQLVESGGGLVQEGGSLRLSCAPSGRTFAKYAMGWYRQSPGKERELVAAITRGDTTNYADSVKGRFTISRDNAKNTVYLQMNSLKPEDTAVYYCAATPDPPHTYEYWGQGTQVTVSS | low polyreactivity |
| QVQLQESGGGLVQAGGSLRQSCEASGYIFPYYSMGWYRQAPGKERGLVACIAAGTTTNYADSVKVRFTISRDNAKNTVYLQMNSLKPEDAAVYYCAALNAFNPGHWYWGQGSQVTVSS | low polyreactivity |
| QVQLVESGAALVQAGGSLRISCAASGSTLDTNAMGRYRPAPGKERELVAAITFSGGTTYYADSVKGRFTISRDNAKNTVYLQMNSLKPEDTAVYYCAAEIWLEYVGYDYWGQGTQVTVSS | high polyreactivity |

| Sequence | polyreactivity (PSR sort gate) |
| --- | --- |
| QVQLVESGGGVVQAGRSLRLSCAASGRLFVRNAMGWYRQAPGKDRELVAAITSVGDTYYADSVKGRFTISRDNAKNTVYLQMNSLKPVDTAVYYCAVYLWSGWGYPEYNYWGQGTQVTVSS | low polyreactivity |
| QVQLVESGGGLVQAGGSLRLSCAASGGIFGYYTMGWYRQAPGKERELVAAITWRGSTYYADSVKGRFTISRDNAKNTVYLQMNSLKPEDTAVYYCAARYYSPYGYCGQGTQVTVSS | high polyreactivity |
| QVQLVESGGGLVQAGGSLRLSCAASGIIFGVYAMGWYRQAPGKERELVAAIDGNGSSTYYADSVKGRFISSRDNAKTTVYLQMNSLKPEDTAVYYCAADLVWVSTSYYYWGQGTQVTVSS | low polyreactivity |
| QVQLVESGGGLVQAGGSLRLSCAASGRTFAYYAMGWYLQAPGKERELVAAISSGGGSTYYADSVKGRFTISRDNAKNTVYLQMNSLKPEDTAVYYCNKGFNYGGWFKKYGYWGQGTQVTVSS | high polyreactivity |
| QVQLVESGGGLVQAGGSLRLSCDASGSTFPKYAMGWYRQAPGKEWELVASISARGGGTHYADSVKGRFTISRDNAKNTVYLQMNSLKPEDTAVYYCNDVAHRQAQGAWGPGTQVTVSS | low polyreactivity |
| QVQLVESGGGLVQAGGSLRLSCAASGSIFGRYGMVWSRPAPGKERELVAAITSATRTNYADSVKGRFTISRDNAKNTVYLQMNSLKPEDTAVYYCAKQTYRRLPQTPYNYWGQGSQVTVSS | low polyreactivity |
| QVQLVESGGGLVQAGGSLRLSCAASGSTFPGNAMGWYRQAPGKESELVASISGGGDSTYYADSVKGRFTISRDNAKNTVYLQMISLKPEDTAVYYCAADYRQEPGYTGYYYWGQGTQVTVSS | low polyreactivity |
| QVQLVESGGGLVQAGGSLRLSCAASGLIFSRNAMGWYRQAPGKERELVAAISGGGGSTYYADSVKGRFTISRDNAKNTVYLQMNSLKPEATAVYYCAAKGYWWLTPWIATYDYWGQGTQVTVSS | high polyreactivity |
| QVQLVESGGGLVQAGGSLRLSCAASGSTFGVNARGWYRQAPGKERELVAGITWTGGSSYYADSVKGRFTISRDNAKNTVYLQMNSLKPEDTAVYYCAKDWYSSYYDDSEDSWGQGTQVTVSS | low polyreactivity |
| QVKLVESAVRLVQAGGSLRLSCAASASTLYRYSMGLYRQAPGKERELVAAISSSGGSSYYADSVKGRFTISRDNAKNTVYLQMNRLKQEDTAVYYCSAAALRTIGAGYRYGNWGQGTQVTVSS | high polyreactivity |
| QVQLVESGGGLVQAGGSLRLSCAASGSIFNRNVMGWYRQAPGKERELVAAITWSGASTYYADSVKGRFTISRDNAKNTVYLQMNSLKPEDTAVYYCAARGPSRRRDGSDYWGQGTQVTVSS | high polyreactivity |
| QVQLVESGGGLVQAGGSLRLSCAASGITFNKYAMGWYRQAPGKERELVAAISSRGGSTYYADSVKGRFTISRDNAKNTVYLQMNSLKPEDTAVYYCNADVYRASNFDYWGQGTQVTVSS | high polyreactivity |
| QVQLVESGGRLVQAGGSLRLSCAASGYIFKTNVMGWYRQAPGKEREMVAAISWSGGRTYYADSVKGRFTISRDYGKNCVYLQMNSLKPEDTSVYYFAAVGRQSIYFVDYDFWGQGTQVTVSS | high polyreactivity |
| QVQLVESGGGLVQAGGSLRLSCAASGFTFYWYAMGWYRQAPGKEREFVAAIDQSGGSTYYADSVKGRFTISRDNAKNTVYLQMNSLKPEDTAVYYCAARYILWDGDSWTEFDYWGQGTQVTVSS | low polyreactivity |
| QVQLVESGGGLVQAGGSLRLSCAASGNTFRYYAMGWYRQAPGKERELLAAINSRGGTTSYADSVKGRFTISRDNAKNTVYLQMNSLKPEDTAVYYCNKYIRYPFKRYGYWGQGTQVTVSS | high polyreactivity |
| QVQLVESGGGLVQAGGSLRLSCAASGRTFLWNAMGWYRQAPGKERELVARINLSGGRTYYADSVKGRFTISRDNAKNTVYLQMNSLKPEDTAVYYCAATVVRYRRDSWGQGTQVTVSS | low polyreactivity |
| QVQLVESGGGLVQAGGSLRLSCAASGLTLTSNAMGWYRQAPGKERELVAAINGSGGITYYADSVKGRFTISRDNAKNTVYLQMNSLKPEDTAVYYCNTVHYNLDYEYDYWGQGTQVTVSS | low polyreactivity |
| QVQLVVSGGGLVQAGGSLRLSCAASGRIFVANAMGWYRQAPGKERELVAAISGRGSRTYYADSVKGRFTISRDNAKNTVYLQMNSLKPEDTAVYYCAARYRYDGRYDYWGQGTQVTVSS | high polyreactivity |
| QVQLVESGGGLVQAGGSLRLSCAASGYTFDGYPRGWYRQAPGKERELVAVITKSGGRTYYADSVKGRFTNSRDNAKNTVYLQMNSLKPEDTAVYYCAADDSGTKDIVEGEYWGQGTQVTVSS | high polyreactivity |
| QVQLVESGRGLVQAGGSLRLSSAASGSTFVNYDMGWYRQATGKERELVAAITSSGDSTYYADSVKGRFTISRDNAKNTVYLQMNSLKPEDTAVYYCNRDDAGIMDYWGQGTQVTVSS | low polyreactivity |
| QVQLVESGGGLVQAGCSLRLSCAASGSIFDVNAMGWYRQAPGKERELVAAISQRGNRTYYADSVKGRFTISRDNAKNTVYLQMNSLKPEDTAVYYCNRGGWRQYDSWGQGTQVTVSS | high polyreactivity |
